Consider one molecule from US20250101446A1, “METHOD FOR GENETIC TRANSFORMATION OF PLANT ORGANELLE GENOME AND USES THEREOF” (Solar Grants Biotechnology Inc., priority 2022, published 2025).

Data set [1] deals with the molecule itself. Kind of data set: self-association (dimers and multimers) seen on SDS-PAGE and western blot.
Description: Western blots membranes were visualized using the enhanced chemiluminescence (ECL) detection kit (GE Healthcare, Cat. No. RPN2232) and imaged with the DNR Bio-Imaging System MicroChemi (RANCOM A/S, Birkerød, Denmark). Densitometry was performed using the TotalLab TL 100 software (Nonlinear Dynamics, Durham, NC).
Data set [2] concerns human metastatic breast cancer cell line MDA-MB-231. The data set can be described thus: IL-6 secretion by MDA-MB-231 cells (P1 stimulation, plantakine pre-incubation; ELISA). It is filed as cell-based. As to conditions: pre-incubated 3 h at the indicated concentrations. Here is the method: IL-6 secretion by the human metastatic breast cancer cell line MDA-MB-231 into the conditioned media was measured by ELISA. The cells were pre-incubated for 3 h in the presence of plant-produced recombinant IL-38 or IL-37b at the indicated concentrations (ng/ml) prior to stimulation with peptide P1 (10 mM). PBS (1×) was added to the control. Shown are the average results of 3 independent experiments. ** P<0.01; * P<0.05, compared with the control.
Correct folding of plant-produced IL-38 and IL-37b anti-inflammatory cytokines was assessed by enzyme-linked immunosorbent assay (ELISA) using the DuoSet Human IL-38/IL-1F10 kit (R&D systems) and the Human IL-37/IL-1F7 uncoated ELISA kit (Invitrogen), respectively, following the instructions of the manufacturers. Secreted IL-6 was assessed using the Human IL-6 Uncoated ELISA kit (Invitrogen).

B1: plant-produced recombinant human IL-38, mature form C2-W152 with C-terminal 7xHIS tag (ligand)
chain: CSLPMARYYIIKYADQKALYTRDGQLLVGDPVADNCCAEKICILPNRGLARTKVPIFLGIQGGSRCLACVETEEGPSLQLEDVNIEELYKGGEEATRFTFFQSSSGSAFRLEAAAWPGWFLCGPAEPQQPVQLTKESEPSARTKFYFEQSWHHHHHHH
notes: range 2-152; also called rhIL-38; plantakine IL-38
Turning to B1, the binding result in data set [1] is “binds”. In data set [2], the “attenuating effect on P1-induced IL-6 secretion (in words)” value is on record as “dose-dependent”.
